The target in assay [1] is M2-Strep-tag II fusion protein (Strep II tag, 6xHis tag, full-length human MBL2) (human) (UniProt P11226). As to the kind of experiment: native gel or EMSA; native PAGE of purified M1 and of purified M2; oligomer size from the apparent molecular weight against the monomer's size by SDS-PAGE; for M2 the names trimer, tetramer, pentamer count subunits of three 32-kDa chains. For orientation: A gel shift assay detects complexes by their altered migration in electrophoresis.

The target of assay [2] is recombinant human mannan-binding lectin M1 (6xHis, MAKT, human IgG1 Fc C220-G446, Arg linker, human MBL2 neck and CRD 81-228) (human) (UniProt P11226). The description is as above.

From article PMC7098737 come the findings set out here.

Values joined by “and” are separate entries in the source; they are usually repeats but may differ in a detail not shown here. Equal entries are not always repeated.

As a reminder, the stoichiometry N is the number of molecules, sites or subunits per partner or assembly.

As to “M2-Strep-tag II fusion protein (Strep II tag, 6xHis tag, full-length human MBL2) (from UniProt P11226 21-248) (natural protein)”, in assay [1], the stoichiometry N is 4 and 3 and 5.

Consider “recombinant human mannan-binding lectin M1 (6xHis, MAKT, human IgG1 Fc C220-G446, Arg linker, human MBL2 neck and CRD 81-228) (from UniProt P11226 101-248) (Fc fusion)”, for which the stoichiometry N in assay [2] was found to be 6 monomers.
